These results are taken from paper PMC5714945, “A homologue of the Parkinson’s disease-associated protein LRRK2 undergoes a monomer-dimer transition during GTP turnover” (Nature Communications, 2017).

Series [1] deals with the molecule itself. The series is described as follows: SEC-MALS; nucleotide-free protein; 10 µl of 8 mg ml^-1 injected on a Bio SEC-3 column; buffer as for SEC-SAXS. Background: In gel filtration, larger molecules generally elute earlier.
Series [2] deals with the molecule itself. Kind of series: cell-based or functional assay.
Series [3] concerns the molecule itself. Kind of series: SEC-SAXS; nucleotide-free protein; 50 µl of 8 mg ml^-1 injected on a Bio SEC-3 column; 20 mM Hepes pH 7.5, 150 mM NaCl, 5 mM MgCl2, 5% glycerol, 1 mM DTT; mass from Porod volume.
Series [4] concerns the molecule itself. Kind of series: native MS; GppNHp: pre-incubated with 500 µM, 100 µM in 150 mM ammonium acetate pH 7.5; protein 12.5-16 µM.

B1: CtRoco L487A mutant, full length (natural protein, Chlorobium tepidum, UniProt Q8KC98 1-1102, looked up)
chain: MSDLDVIRQIEQELGMQLEPVDKLKWYSKGYKLDKDQRVTAIGLYDCGSDTLDRIIQPLESLKSLSELSLSSNQITDISPLASLNSLSMLWLDRNQITDIAPLASLNSLSMLWLFGNKISDIAPLESLKSLTELQLSSNQITDIAPLASLKSLTELSLSGNNISDIAPLESLKSLTELSLSSNQITDIAPLASLKSLTELSLSSNQISDIAPLESLKSLTELQLSRNQISDIAPLESLKSLTELQLSSNQITDIAPLASLKSLTELQLSRNQISDIAPLESLNSLSKLWLNGNQITDIAPLASLNSLTELELSSNQITDIAPLASLKSLSTLWLSSNQISDIAPLASLESLSELSLSSNQISDISPLASLNSLTGFDVRRNPIKRLPETITGFDMEILWNDFSSSGFITFFDNPLESPPPEIVKQGKEAVRQYFQSIEEARSKGEALVHLQEIKVHLIGDGMAGKTSLLKQLIGETFDPKESQTHGANVVTKQAPNIKGLENDDELKECLFHFWDFGGQEIMHASHQFFMTRSSVYMLLLDSRTDSNKHYWLRHIEKYGGKSPVIVVMNKIDENPSYNIEQKKINERFPAIENRFHRISCKNGDGVESIAKSLKSAVLHPDSIYGTPLAPSWIKVKEKLVEATTAQRYLNRTEVEKICNDSGITDPGERKTLLGYLNNLGIVLYFEALDLSEIYVLDPHWVTIGVYRIINSSKTKNGHLNTSALGYILNEEQIRCDEYDPAKNNKFTYTLLEQRYLLDIMKQFELCYDEGKGLFIIPSNLPTQIDNEPEITEGEPLRFIMKYDYLPSTIIPRLMIAMQHQILDRMQWRYGMVLKSQDHEGALAKVVAETKDSTITIAIQGEPRCKREYLSIIWYEIKKINANFTNLDVKEFIPLPGHPDELVEYKELLGLEKMGRDEYVSGKLEKVFSVSKMLDSVISKEERNKERLMGDINIKLENIGNPTIPIHQQVEVNVSQETVQHVENLQGFFENLKADILREAELEIDDPKERKRLANELELAENAITKMDAAVKSGKNKLKPDVKDRLGEFIDNLANENSRLRKGIALVMNGAEKVQKLARYYNNVAPFFDLPSVPPVLLGKEKT
notes: Roco protein from Chlorobium tepidum (CtRoco), a.a; 1-1102, with L487A (analogue of LRRK2 I1371V); also called L487A CtRoco
By stoichiometry N is commonly meant a count of units in the complex or per binding partner. Regarding B1, the “stoichiometry N” value in series [1] was found to be 2.

B2: CtRoc-COR L487A mutant (domain or fragment, Chlorobium tepidum, UniProt Q8KC98 412-946, looked up)
chain: DNPLESPPPEIVKQGKEAVRQYFQSIEEARSKGEALVHLQEIKVHLIGDGMAGKTSLLKQLIGETFDPKESQTHGANVVTKQAPNIKGLENDDELKECLFHFWDFGGQEIMHASHQFFMTRSSVYMLLLDSRTDSNKHYWLRHIEKYGGKSPVIVVMNKIDENPSYNIEQKKINERFPAIENRFHRISCKNGDGVESIAKSLKSAVLHPDSIYGTPLAPSWIKVKEKLVEATTAQRYLNRTEVEKICNDSGITDPGERKTLLGYLNNLGIVLYFEALDLSEIYVLDPHWVTIGVYRIINSSKTKNGHLNTSALGYILNEEQIRCDEYDPAKNNKFTYTLLEQRYLLDIMKQFELCYDEGKGLFIIPSNLPTQIDNEPEITEGEPLRFIMKYDYLPSTIIPRLMIAMQHQILDRMQWRYGMVLKSQDHEGALAKVVAETKDSTITIAIQGEPRCKREYLSIIWYEIKKINANFTNLDVKEFIPLPGHPDELVEYKELLGLEKMGRDEYVSGKLEKVFSVSKMLDSVISKEERNKER
notes: Roco protein from Chlorobium tepidum, Roc-COR module a.a; 412-946, with L487A (analogue of LRRK2 I1371V); also called L487A CtRoc-COR
Take B2: in series [1], the “stoichiometry N” value was 2. For the same protein, the “single-turnover GTP hydrolysis rate constant (1 µM protein, 1 µM GTP, GDP formation by reversed-phase HPLC), L487A against wild-type CtRoc-COR” value in series [2] was 4 fold decrease.

B3: Roc-COR domain construct of the Chlorobium tepidum Roco protein (CtRoc-COR) (domain or fragment, UniProt Q8KC98 412-946, looked up)
chain: DNPLESPPPEIVKQGKEAVRQYFQSIEEARSKGEALVHLQEIKVHLIGDGMAGKTSLLKQLIGETFDPKESQTHGLNVVTKQAPNIKGLENDDELKECLFHFWDFGGQEIMHASHQFFMTRSSVYMLLLDSRTDSNKHYWLRHIEKYGGKSPVIVVMNKIDENPSYNIEQKKINERFPAIENRFHRISCKNGDGVESIAKSLKSAVLHPDSIYGTPLAPSWIKVKEKLVEATTAQRYLNRTEVEKICNDSGITDPGERKTLLGYLNNLGIVLYFEALDLSEIYVLDPHWVTIGVYRIINSSKTKNGHLNTSALGYILNEEQIRCDEYDPAKNNKFTYTLLEQRYLLDIMKQFELCYDEGKGLFIIPSNLPTQIDNEPEITEGEPLRFIMKYDYLPSTIIPRLMIAMQHQILDRMQWRYGMVLKSQDHEGALAKVVAETKDSTITIAIQGEPRCKREYLSIIWYEIKKINANFTNLDVKEFIPLPGHPDELVEYKELLGLEKMGRDEYVSGKLEKVFSVSKMLDSVISKEERNKER
notes: Roco protein from Chlorobium tepidum (CtRoco), central Roc-COR module, a.a; 412-946; The monomer chain is written; also called CtRoc-COR wt; Roc-COR module; source: E. coli BL21 (DE3), purified (Ni-NTA IMAC, EDTA treatment, Superdex S200 SEC)
For the protein B3, the “stoichiometry N” value in series [3] worked out at 2. Also, the monomer/dimer ratio in series [4] was around 1 monomer/dimer.
